± gives the uncertainty stated by the source.
B1: Ras GTPase-activating protein 1, residues 281 to 341; numbered along this chain, P20936 (parent)
chain: RRRVRAILPYTKVPDTDEISFLKGDMFIVHNELEDGWMWVTNLRTDEQGLIVEDLVEEVGR

Variants of: B1
Experiment: abundance fitness (aPCA) (normalised: wild type 0, dead -1); higher = more abundant; growth selection in yeast, the domain comes from the species named
Settings: Homo sapiens

For RRRVRAILPYTKVPDTDEISFVKGDMFIVHNELEDGWMWVTNLRTDEQGLIVEDLVEEVGR, which abundance fitness is on record?
The abundance fitness was -0.038 ± 0.035.

For RRRVRAILPYTKVPDTDEISFFKGDMFIVHNELEDGWMWVTNLRTDEQGLIVEDLVEEVGR, which abundance fitness is on record?
The abundance fitness was -0.145 ± 0.029.

Which abundance fitness does the source give for RRRVRAILPYTKVPDTDEISFLKGDMFIVHNELEDGWMWVTNLRTKEQGLIVEDLVEEVGR here?
Its abundance fitness is 0.085 ± 0.042.

For RRRVRAILPYTKVPDTDEISFLKGDMFIVHNELEDGWMWVTNLRTREQGLIVEDLVEEVGR, which abundance fitness is on record?
Its abundance fitness is 0.019 ± 0.028.

With RRRVRAILPYTKVPDTDEISFLKGDMFIVHNELEDGWMWVTNLRDDEQGLIVEDLVEEVGR as the variant, how does the abundance fitness read?
Its abundance fitness is -0.762 ± 0.041.

For RRRVRAILPYTKVPDTEEISFLKGDMFIVHNELEDGWMWVTNLRTDEQGLIVEDLVEEVGR, which abundance fitness is on record?
The abundance fitness was -0.006 ± 0.053.

Which abundance fitness does the source give for RRRVRAILPYTKVNDTDEISFLKGDMFIVHNELEDGWMWVTNLRTDEQGLIVEDLVEEVGR here?
The abundance fitness was -0.075 ± 0.03.

With RRRVRAILPYTKVVDTDEISFLKGDMFIVHNELEDGWMWVTNLRTDEQGLIVEDLVEEVGR as the variant, how does the abundance fitness read?
The abundance fitness was -0.101 ± 0.027.

With RRRVRAILPYTKVPDTDEISFLKGDMFIVHNELEDGWMWVTNLRTDEQGLIVEDLVEEIGR as the variant, how does the abundance fitness read?
The abundance fitness was -0.04 ± 0.029.

With RRRVRAILPYTKVPDSDEISFLKGDMFIVHNELEDGWMWVTNLRTDEQGLIVEDLVEEVGR as the variant, how does the abundance fitness read?
The abundance fitness was -0.031 ± 0.024.

With RRRVRAILPYTKVPDTDEISFLKGDMFIVHNELEDGWMWVTNLRTDEQGLIVEDHVEEVGR as the variant, how does the abundance fitness read?
Its abundance fitness is 0.059 ± 0.034.

For RRRVRAILPYTKVPDTDEISFLKGDMFIVHTELEDGWMWVTNLRTDEQGLIVEDLVEEVGR, which abundance fitness is on record?
Its abundance fitness is -0.046 ± 0.03.

With RDRVRAILPYTKVPDTDEISFLKGDMFIVHNELEDGWMWVTNLRTDEQGLIVEDLVEEVGR as the variant, how does the abundance fitness read?
The abundance fitness was -0.179 ± 0.034.

With RWRVRAILPYTKVPDTDEISFLKGDMFIVHNELEDGWMWVTNLRTDEQGLIVEDLVEEVGR as the variant, how does the abundance fitness read?
The abundance fitness was -0.371 ± 0.055.

With RRRVRAILPYTKVPDTDEISFLKGDMFIVHNELEDGWMWVTNLRTDEQGLIVSDLVEEVGR as the variant, how does the abundance fitness read?
Its abundance fitness is 0.021 ± 0.025.

Which abundance fitness does the source give for RRRVRCILPYTKVPDTDEISFLKGDMFIVHNELEDGWMWVTNLRTDEQGLIVEDLVEEVGR here?
Its abundance fitness is -0.829 ± 0.027.

With RRRVREILPYTKVPDTDEISFLKGDMFIVHNELEDGWMWVTNLRTDEQGLIVEDLVEEVGR as the variant, how does the abundance fitness read?
Its abundance fitness is -0.819 ± 0.054.

With RRRVRAILPYTKVPDTDEISFLKGDMFIVHNELEDYWMWVTNLRTDEQGLIVEDLVEEVGR as the variant, how does the abundance fitness read?
Its abundance fitness is -0.874 ± 0.048.

For RRRVRAILPYTKVPDTDEISFLKGDMFIVHNELEDKWMWVTNLRTDEQGLIVEDLVEEVGR, which abundance fitness is on record?
The abundance fitness was -0.344 ± 0.097.

With RRRVRAILPYTKVPDTDEISFLKGDMFIVHNELEDGWMWVTNLRTDQQGLIVEDLVEEVGR as the variant, how does the abundance fitness read?
The abundance fitness was -0.135 ± 0.075.

For RRRVRAILPYTKVPDTDEISFLKGDMFIVHNELEDGWMWVTNLRTDCQGLIVEDLVEEVGR, which abundance fitness is on record?
The abundance fitness was -0.192 ± 0.029.

Which abundance fitness does the source give for RRRVRAILPYTKVPDTDEISFLKGDMFIVHNELEDGWMWVTNLRTDGQGLIVEDLVEEVGR here?
Its abundance fitness is -0.684 ± 0.034.

With RRRVRAILPYTKVPDTDEISFLKGDMHIVHNELEDGWMWVTNLRTDEQGLIVEDLVEEVGR as the variant, how does the abundance fitness read?
The abundance fitness was -0.724 ± 0.05.

Which abundance fitness does the source give for RRRVRAILPYTKVPDTDEISFLKGDMFIVHNELEDGWMWVTNLRTDEQGLIVEDLMEEVGR here?
Its abundance fitness is -0.23 ± 0.056.

For RRRVRAILPYTKVPDTDEISFLKGDMFIVHNELEDGWMWVTNLRTDEQGLIVEDLPEEVGR, which abundance fitness is on record?
The abundance fitness was -0.778 ± 0.054.

For RRRVRAILPYTKVPDTDEISFLKGDMFIVHNELEDGWMWVTNLRTDEQGLILEDLVEEVGR, which abundance fitness is on record?
Its abundance fitness is 0.041 ± 0.027.

For RRRVRAILPYTKVPDTDEISFLKGDMFIVHNELEDGWMWVTNLRTDEQGLIMEDLVEEVGR, which abundance fitness is on record?
Its abundance fitness is 0.031 ± 0.072.

Which abundance fitness does the source give for RRRVRAILPYTKVPDTDEISFLKGDMFIVHNELEDGWRWVTNLRTDEQGLIVEDLVEEVGR here?
Its abundance fitness is -0.505 ± 0.038.

For RRRVRAILPYTKVPDTDEISKLKGDMFIVHNELEDGWMWVTNLRTDEQGLIVEDLVEEVGR, which abundance fitness is on record?
Its abundance fitness is -0.988 ± 0.081.

For RRRVRAILPYTKVPDTDEISYLKGDMFIVHNELEDGWMWVTNLRTDEQGLIVEDLVEEVGR, which abundance fitness is on record?
The abundance fitness was -0.091 ± 0.021.

Which abundance fitness does the source give for RRRVRAILPYTKVPDTDEISCLKGDMFIVHNELEDGWMWVTNLRTDEQGLIVEDLVEEVGR here?
Its abundance fitness is -0.101 ± 0.021.

With RRRVRAILPYTKVPDTDEISFLKGDMFIVHNELEDGWMWVYNLRTDEQGLIVEDLVEEVGR as the variant, how does the abundance fitness read?
The abundance fitness was -0.312 ± 0.033.

With RRRVRAILPYTKVPDTDEISFLKGDMFIVHNELEDGWMWVANLRTDEQGLIVEDLVEEVGR as the variant, how does the abundance fitness read?
Its abundance fitness is -0.633 ± 0.045.

For RRRVRACLPYTKVPDTDEISFLKGDMFIVHNELEDGWMWVTNLRTDEQGLIVEDLVEEVGR, which abundance fitness is on record?
Its abundance fitness is -0.231 ± 0.029.

For RRRVRAHLPYTKVPDTDEISFLKGDMFIVHNELEDGWMWVTNLRTDEQGLIVEDLVEEVGR, which abundance fitness is on record?
The abundance fitness was -0.305 ± 0.036.

Which abundance fitness does the source give for RRRVRAKLPYTKVPDTDEISFLKGDMFIVHNELEDGWMWVTNLRTDEQGLIVEDLVEEVGR here?
Its abundance fitness is 0.037 ± 0.072.

For RRRVRAILPYTKVPDTDEISFLKMDMFIVHNELEDGWMWVTNLRTDEQGLIVEDLVEEVGR, which abundance fitness is on record?
The abundance fitness was -0.59 ± 0.078.

With RRRVRAILPYTKVPDTDEISFLKSDMFIVHNELEDGWMWVTNLRTDEQGLIVEDLVEEVGR as the variant, how does the abundance fitness read?
Its abundance fitness is -0.362 ± 0.027.

With RRRVRAILPYTKVPDTDEISFLKFDMFIVHNELEDGWMWVTNLRTDEQGLIVEDLVEEVGR as the variant, how does the abundance fitness read?
The abundance fitness was -0.584 ± 0.035.

With RRRVRAILPYTKVPDTDEISFLKADMFIVHNELEDGWMWVTNLRTDEQGLIVEDLVEEVGR as the variant, how does the abundance fitness read?
Its abundance fitness is -0.495 ± 0.034.

With RRRVRAILPYTKVPDTDEISFLKGDMFIVHNELEDGWMWVTNLRTDEQGPIVEDLVEEVGR as the variant, how does the abundance fitness read?
Its abundance fitness is -0.504 ± 0.057.

With RRRVRAILPYTKVPDTDEISFLKGDMFIVHNELEDGWMWVTNLRTDEQGYIVEDLVEEVGR as the variant, how does the abundance fitness read?
Its abundance fitness is -0.05 ± 0.026.

Which abundance fitness does the source give for RRRVRAILPYTKVPDTDEISFLKGDMFIVHNELEDGWMWVTNLRTDEQGFIVEDLVEEVGR here?
Its abundance fitness is -0.126 ± 0.026.

Which abundance fitness does the source give for RRRVRAILPYTKVPDTDEISFLKGDMFIVHNELEDGWMWVTNLRTDEQGIIVEDLVEEVGR here?
Its abundance fitness is -0.03 ± 0.026.

— the Human Domainome abundance scans (Beltran et al. 2025)
